# Data: US20010029293A1
# Target: CD18-independent counterreceptor for ICAM-R on Jurkat cells
# Test: cell adhesion to coated shICAM-R, peptide 1-2 mg/ml
row,% Inhibition CD18-Independent Binding (Jurkat) [%],Binder
1,22,GDQRL [ICAM-1 peptide 228-232 (GDQRL)]
2,36,GDQML [ICAM-R peptide 230-234 (GDQML)]
3,10,EKIALET [ICAM-R peptide 32-38]
4,17,NGSQI [ICAM-R peptide 72-76 (NGSQI)]
5,11,GERREA [ICAM-R peptide 271-276]
6,9,DGQST [ICAM-1 peptide 70-74 (DGQST)]
